Reference: patent publication US20040006777A1 (HSC RESEARCH AND DEVELOPMENT LIMITED PARTNERSHIP, published 2004)

Experiments:
[1] = biological target: T1, p116 Jak3 (endogenous, human thymocytes) (human, UniProt P52333 1-1124, limits assumed); test: western blot of Lyp immunoprecipitates from anti-CD3 stimulated human thymocytes
T1 sequence (looked up): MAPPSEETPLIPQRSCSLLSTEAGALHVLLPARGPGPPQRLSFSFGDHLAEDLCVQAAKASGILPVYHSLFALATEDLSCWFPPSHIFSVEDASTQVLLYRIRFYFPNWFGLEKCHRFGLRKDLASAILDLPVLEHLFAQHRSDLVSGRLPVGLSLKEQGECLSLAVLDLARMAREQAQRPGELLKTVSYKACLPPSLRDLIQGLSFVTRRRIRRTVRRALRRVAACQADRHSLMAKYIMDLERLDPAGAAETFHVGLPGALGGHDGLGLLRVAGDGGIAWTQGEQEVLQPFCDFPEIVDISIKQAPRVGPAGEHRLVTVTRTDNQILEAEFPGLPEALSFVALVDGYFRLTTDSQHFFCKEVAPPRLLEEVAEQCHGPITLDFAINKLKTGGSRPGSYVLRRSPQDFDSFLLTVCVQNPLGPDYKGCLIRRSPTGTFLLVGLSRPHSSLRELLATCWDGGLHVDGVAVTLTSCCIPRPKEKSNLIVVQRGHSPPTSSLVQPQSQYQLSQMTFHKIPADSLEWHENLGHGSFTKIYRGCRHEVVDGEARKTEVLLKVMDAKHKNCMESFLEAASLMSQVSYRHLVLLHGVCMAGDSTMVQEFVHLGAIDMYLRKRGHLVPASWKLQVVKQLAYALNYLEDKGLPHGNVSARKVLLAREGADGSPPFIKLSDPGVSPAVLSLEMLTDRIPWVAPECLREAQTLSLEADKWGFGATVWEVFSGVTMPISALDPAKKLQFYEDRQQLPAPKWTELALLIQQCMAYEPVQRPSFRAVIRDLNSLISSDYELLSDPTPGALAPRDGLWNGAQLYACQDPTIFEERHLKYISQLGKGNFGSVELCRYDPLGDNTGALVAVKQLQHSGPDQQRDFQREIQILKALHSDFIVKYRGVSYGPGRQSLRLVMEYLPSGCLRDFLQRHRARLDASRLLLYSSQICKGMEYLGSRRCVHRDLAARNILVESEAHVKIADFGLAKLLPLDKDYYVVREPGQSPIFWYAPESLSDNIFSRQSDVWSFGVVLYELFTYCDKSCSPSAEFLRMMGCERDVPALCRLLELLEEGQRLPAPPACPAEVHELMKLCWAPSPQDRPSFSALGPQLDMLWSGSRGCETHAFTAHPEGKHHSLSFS
Procedure: (§1) (A) Lyp immunoprecipitates from thymocytes (80×10⁶ cells) stimulated with anti-CD3 were blotted with antiphsophotyrosine. […] Lyp protein loading was quantitated by anti-Lyp western blot after stripping. […] (C) Lyp1 was transfected into COS-7 cells and Cbl immunoprecipitates prepared from these and untransfected cells. Western blotting was performed with Lyp antibodies. The position of Lyp is indicted by an arrow. Cbl immunoprecipitates were also prepared and blotted with anti-phosphotyrosine (D), and then anti-Cbl after stripping.
(§2) One of the earliest events following TCR stimulation of T cells is the induction of tyrosine phosphorylation. In order to determine whether Lyp played a role in TCR signalling, human thymocytes were stimulated with anti-CD3 for various periods of time, Lyp immunoprecipitated and blotted with anti-phosphotyrosine. […] Once activated, the phosphorylation level of this protein remained constant over a period of 20 minutes. […] This interaction was also observed in the mature T cell line Jurkat (not shown) and further confirmed by transfection of Lyp1 into COS-7 cells and examining its association with the endogenous Cbl protein (FIG. 13C).

p125Fak = p125Fak (human, UniProt Q05397 2-1052, limits assumed); test: as above
Procedure: as §1, §2

Sequence of p125Fak (Q05397 2-1052 limits assumed): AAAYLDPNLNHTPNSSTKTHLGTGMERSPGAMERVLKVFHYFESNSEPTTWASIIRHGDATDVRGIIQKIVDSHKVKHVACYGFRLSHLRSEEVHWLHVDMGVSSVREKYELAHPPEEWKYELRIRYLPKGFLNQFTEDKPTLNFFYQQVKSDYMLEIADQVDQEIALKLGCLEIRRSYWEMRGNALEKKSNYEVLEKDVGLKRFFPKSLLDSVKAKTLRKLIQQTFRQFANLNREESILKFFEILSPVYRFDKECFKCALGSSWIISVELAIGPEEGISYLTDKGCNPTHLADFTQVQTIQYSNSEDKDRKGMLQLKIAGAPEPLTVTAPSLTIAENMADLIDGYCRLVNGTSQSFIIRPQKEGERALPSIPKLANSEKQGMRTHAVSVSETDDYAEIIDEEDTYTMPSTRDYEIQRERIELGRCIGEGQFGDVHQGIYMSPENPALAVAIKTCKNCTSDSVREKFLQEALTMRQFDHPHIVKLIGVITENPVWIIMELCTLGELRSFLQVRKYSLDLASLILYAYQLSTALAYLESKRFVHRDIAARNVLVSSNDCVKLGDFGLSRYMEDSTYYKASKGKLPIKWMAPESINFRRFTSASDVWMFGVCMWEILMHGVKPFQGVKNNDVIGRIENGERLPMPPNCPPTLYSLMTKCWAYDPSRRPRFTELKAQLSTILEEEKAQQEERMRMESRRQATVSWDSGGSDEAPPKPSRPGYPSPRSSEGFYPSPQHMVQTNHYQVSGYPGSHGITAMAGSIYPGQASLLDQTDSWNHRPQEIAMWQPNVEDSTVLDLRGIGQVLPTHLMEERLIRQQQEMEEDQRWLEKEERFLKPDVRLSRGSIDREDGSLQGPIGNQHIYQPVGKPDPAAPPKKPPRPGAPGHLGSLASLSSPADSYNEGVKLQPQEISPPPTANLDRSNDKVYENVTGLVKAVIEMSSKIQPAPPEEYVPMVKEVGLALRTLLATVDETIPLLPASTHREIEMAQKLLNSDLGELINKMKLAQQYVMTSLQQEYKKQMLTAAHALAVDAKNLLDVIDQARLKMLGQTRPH

B1: Lyp1 (human lymphoid protein tyrosine phosphatase, 105 kD) (enzyme)
chain: MDQREILQKFLDEAQSKKITKEEFANEFLKLKRQSTKYKADKTYPTTVAENAKNIKKNRYKDILPYDYSRVELSLITSDEDSSYINANFIKGVYGPKAYIATQGPLSTTLLDFWRMIWEYSVLIIVMACMEYEMGKKKCERYWAEPGEMQLEFGPFSVSCEAEKRKSDYIIRTLKVKFNSETRTIYQFHYKNWPDHDVPSSIDPILELIWDVRCYQEDDSVPICIHCSAGCGRTGVICAIVDYTWMLLKDGIIPENFSVFSLIREMRTQRPSLVQTQEQYELVYNAVLELFKRQMDVIRDKHSGTESQAKHCIPEKNHTLQADSYSPNLPKSTTKAAKMMNQQRTKMEIKESSSFDFRTSEISAKEELVLHPAKSSTSFDFLELNYSFDKNADTTMKWQTKAFPIVGEPLQKHQSLDLGSLLFEGCSNSKPVNAAGRYFNSKVPITRTKSTPFELIQQRETKEVDSKENFSYLESQPHDSCFVEMQAQKVMHVSSAELNYSLPYDSKHQIRNASNVKHHDSSALGVYSYIPLVENPYFSSWPPSGTSSKMSLDLPEKQDGTVFPSSLLPTSSTSLFSYYNSHSSLSLNSPTNISSLLNQESAVLATAPRIDDEIPPPLPVRTPESFIVVEEAGEFSPNVPKSLSSAVKVKIGTSLEWGGTSEPKKFDDSVILRPSKSVKLRSPKSELHQDRSSPPPPLPERTLESFFLADEDCMQAQSIETYSTSYPDTMENSTSSKQTLKTPGKSFTRSKSLKILRNMKKSICNSCPPNKPAESVQSNNSSSFLNFGFANRFSKPKGPRNPPPTWNI
notes: also called native Lyp1; pcDNA3-Lyp1
- binding result [1]: no binding
- binding result (p125Fak): no binding
